Experimental findings from patent US20240309087A1 (SHANGHAI JUNSHI BIOSCIENCES, published 2024) are described below.

Assay [1] addresses T1, hCD112R mFC recombinant protein (human; murine, UniProt Q6DKI7 41-160).
T1 construct: range 41-160; expressed in 293E cells; also called hCD112R ECD mFC; hCD112R-ECD-mFC; not shown: murine IgG2a Fc domain (MX2-mFc vector)
T1 sequence (looked up): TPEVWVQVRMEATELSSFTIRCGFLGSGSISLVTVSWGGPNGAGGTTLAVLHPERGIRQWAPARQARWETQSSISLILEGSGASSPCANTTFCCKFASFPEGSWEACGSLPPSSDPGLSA
Description: Biacore T200, antibody captured, hCD112R mFc injected. The procedure: Biacore T200 was used to assay the binding affinity of the anti-CD112R hybridoma antibodies for the recombinant hCD112R mFc protein. […] antibody fragments (Jackson ImmunoResearch) were coupled to the surface of a CM5 chip, and the anti-CD112R hybridoma antibodies were each captured by using the chip, after which recombinant hCD112R mFc proteins at different concentrations were injected into the CM5 chip.

Assay [2] has as its target T2, human CD112R on Jurkat CD112R effector cells (human, UniProt Q6DKI7 1-326).
T2 sequence (looked up): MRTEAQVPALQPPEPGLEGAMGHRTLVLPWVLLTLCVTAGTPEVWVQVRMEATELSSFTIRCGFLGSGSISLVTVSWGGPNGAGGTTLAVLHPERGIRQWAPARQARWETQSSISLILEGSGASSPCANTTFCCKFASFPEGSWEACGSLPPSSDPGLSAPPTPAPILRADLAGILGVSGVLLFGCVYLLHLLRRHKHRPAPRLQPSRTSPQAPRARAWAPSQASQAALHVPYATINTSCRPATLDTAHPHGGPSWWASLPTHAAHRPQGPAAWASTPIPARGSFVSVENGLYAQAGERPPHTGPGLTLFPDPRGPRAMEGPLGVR
As to the kind of experiment: cell-based or functional assay.

Assay [3] has as its target T3, recombinant cynomolgus monkey CD112R antigen (cynomolgus monkey, UniProt A0A2K5WVV8 1-322).
T3 construct: bought
T3 sequence: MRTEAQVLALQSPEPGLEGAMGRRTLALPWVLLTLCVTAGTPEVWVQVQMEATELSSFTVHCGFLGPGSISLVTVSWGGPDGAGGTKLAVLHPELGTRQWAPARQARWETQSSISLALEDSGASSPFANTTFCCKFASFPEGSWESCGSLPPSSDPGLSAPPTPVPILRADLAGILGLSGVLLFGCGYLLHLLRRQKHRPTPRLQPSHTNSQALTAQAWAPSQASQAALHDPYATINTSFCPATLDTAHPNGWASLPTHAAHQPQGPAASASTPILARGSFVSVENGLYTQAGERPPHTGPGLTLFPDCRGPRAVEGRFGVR
Description: ELISA, coated cynomolgus monkey CD112R. As to the method:
(§1) A plate was coated with a recombinant cynomolgus monkey CD112R antigen (Acrobiosystems, Cat No. PVG-C5259) at a fixed concentration, and the chimeric anti-CD112R antibodies diluted in a gradient (initial concentration: 1 μg/mL, 2.5-fold gradient dilution, 12 concentration gradients in total) were added to bind to the antigen. Horseradish peroxidase (HRP)-conjugated mouse anti-human IgG4 Fc (Southern Biotech, 9200-05) was subjected to a 5000-fold dilution and used as a detection antibody for detection. The color development was performed with 0.1 mg/mL TMB, and finally stopped with 2 M hydrochloric acid. The plate was read at 420 nm/620 nm. EC₅₀ was obtained by fitting with a four-parameter logistic regression (4PL) model.
For orientation: ELISA stands for enzyme-linked immunosorbent assay.

The target in assay [4] is T4, human CD112R on CHO-CD112R cells (human, UniProt Q6DKI7 41-326).
T4 construct: whole, on cells; also called hCD112R; PVRIG
T4 sequence (looked up): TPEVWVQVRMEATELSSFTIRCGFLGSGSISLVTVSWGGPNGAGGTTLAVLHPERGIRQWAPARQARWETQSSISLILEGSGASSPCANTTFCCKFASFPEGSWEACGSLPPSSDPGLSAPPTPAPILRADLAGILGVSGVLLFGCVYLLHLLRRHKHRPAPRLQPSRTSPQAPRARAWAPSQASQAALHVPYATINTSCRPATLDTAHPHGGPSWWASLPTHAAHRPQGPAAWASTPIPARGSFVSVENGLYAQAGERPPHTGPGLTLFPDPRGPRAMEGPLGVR
Description: FACS on CHO-CD112R cells. As to the method:
(§2) CHO-CD112R cells (constructed in-house by Junshi, the amino acid sequence of CD112R in the construction of stable cell lines overexpressing CD112R comprises amino acids at positions Met1-Arg326 under NCBI accession No. Q6DKI7) overexpressing human CD112R were incubated with each of the chimeric anti-CD112R antibodies at different concentrations (initial concentration: 50 μg/mL, 5-fold dilution, 12 concentration gradients in total) at 4° C. for 30 min, and then washed and incubated with a fluorescence-labeled secondary antibody at 4° C. for 30 min in the dark. Finally, the cells were collected by using a flow cytometer (BD Canto II), and the fluorescent antibodies bound to the cell surface were detected. Raw data were analyzed by using FlowJo to obtain MFI values, the antibody dose-dependent binding curves were fitted by using GraphPad (FIG. 3, a and b) and EC₅₀ was calculated (Table 3). The positive control and the negative control were Ref (anti-CD112R antibody, University of Colorado, obtained by expression and purification according to the sequences in US20170240613) and anti-KLH hu-IgG4 antibody, respectively.

Assay [5] has as its target T3, recombinant cynomolgus monkey CD112R …. Description: ELISA, coated cynomolgus monkey CD112R; EC50 Ref/EC50 antibody. As to the method:
as §1

Assay [6] addresses T4, human CD112R on CHO-CD112R cells. Description: FACS on CHO-CD112R cells; EC50 Ref/EC50 antibody. The procedure: as §2
Assay [7] concerns the target T1, hCD112R mFC recombinant protein. Description: FACS competition, hCD112R mFc on CHO CD112 cells; IC50 COM701/IC50 antibody. An outline of the steps:
(§3)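 CHO cells overexpressing human CD112 were co-incubated 30 min at 4 °C with hCD112R mFc (5 μg/mL) and humanized anti-CD112R antibodies (from 100 μg/mL, 3-fold, 10 points). Bound fusion protein detected with anti-mouse IgG Fc secondary by flow cytometry; IC50 from four-parameter fit of MFI. COM701 served as positive control, anti-KLH hu-IgG4 as negative.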

Assay [8] has the same target. Description: ELISA, coated hCD112R-ECD-mFC; EC50 COM701/EC50 antibody. The method in brief:
(§4)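 Plates coated with hCD112R-ECD-mFC at 1.5 μg/mL; humanized antibodies titrated from 1 μg/mL, 2.5-fold, 12 points. Bound antibody detected with HRP anti-human IgG Fc and TMB, read at 420/620 nm; EC50 from 4PL fit, COM701 and anti-KLH hu-IgG4 as controls.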

Assay [9] shares this target. As to the kind of experiment: ELISA, coated hCD112R-ECD-mFC. The method in brief:
as §4

Assay [10] has the same target. Description: FACS competition, hCD112R mFc on CHO CD112 cells. The method in brief:
as §3

The target of assay [11] is T2, human CD112R on Jurkat CD112R effector …. Description: cell-based or functional assay. The source holds these as a separate data set.

Substitutions are numbered along the chain they refer to. Read-outs that look alike come from different tables or passages of the source.

The Kd is a measure of binding affinity in units of concentration. As a reminder, the EC50 is the concentration giving half of the maximal effect. A word on the IC50: it is the concentration that inhibits the measured activity by half.

B1: 8H8.1 (antibody, V domains shown)
VH: EVKLVESGGGLVKPGGSLKVSCAASGFTFSDYPMSWVRQTPDKRLEWVACIDTDENTYYPDSVKGRFTISRDNGRNIVNLQMSSLRSEDAAMYYCARGWDDYAAWFAYWGQGTLVTVSA
VL: ENVLTQFPAIMSVFLGERVTMSCRASSSVNYMYWYQQKSDASPKLWIYHTSNLAPGVPARFSGSGSGNSYSLTISSMEGEDAATYYCQQFTSSPWTFGGGTKLEIK
notes: murine hybridoma antibody
For the molecule B1, in assay [1], the Kd was 0.0588 nM.

B2: Chi-36 (antibody, V domains shown)
VH: EVQLQQSGPELVKPGASVRISCKASGYTFTDYNMHWVKQSHGKSLEWIGYIYPYNGGTGHNQNFKSKATLTVDKSSSTAYMEFRSLTSDDSAVYYCAREDFRHEKMDYWGQGTSVTVSS
VL: DIQMTQSPASLSASVGETVTITCRTSDNIYVYLSWYQQKQGKSPQLLVYNAKTLTENVPSRFSGSGSGTQFSLKINSLQPEDFGSYYCQHHYGTPYTFGGGTKLEIK
notes: chimeric
Turning to B2, the “EC50, CD112R/CD112 reporter” value in [2] amounted to 0.0306 mg/L. Besides, the “Relative activity (%), EC50 Ref/EC50 antibody” value in assay [2] amounted to 1060%. The EC50 is 0.00391 mg/L in assay [3] and 0.351 mg/L in [4]. In addition, the results for the “Relative activity (%)” value in assay [5] and in assay [6] were 89.6% and 478%, respectively.

B3: Chi-45 (antibody, V domains shown)
VH: DVKLVESGGGLVKLGGSLKLSCAASGFTFSSYHMSWVRQTPEKRLELVAAINSNVISTYYLDTVKGRFTISRDNAKNTLYLQMSSLKSEDTALYYCARHEDYYGFAMDYWGQGTSVTVSS
VL: SIVMTQTPKFLLVSAGDRVTITCKASQSVSNDVAWYQEKPGQSPKLLMYYVSHRFTGVPDRFTGSGYGTDFTFTINTVQAEDLAVYFCHQAYRSPWTFGGGTKLEIK
notes: chimeric
As for B3, the “EC50, CD112R/CD112 reporter” value in assay [2] was found to be 0.0119 mg/L. Moreover, the “Relative activity (%), EC50 Ref/EC50 antibody” value in [2] came out at 2710%. In addition, the EC50 is 0.00298 mg/L in assay [3] and 0.726 mg/L in assay [4]. For the same molecule, the entries for the “Relative activity (%)” value in assay [5] and in assay [6] were 118% and 231%, respectively.

B4: Chi-54 (antibody, V domains shown)
VH: B3 VH with V37I, V55G, S57N
VL: B3 VL with E38Q, H53N, H89Q
notes: chimeric
As to B4, in assay [2], the “EC50, CD112R/CD112 reporter” value amounted to 0.00746 mg/L. Besides, the “Relative activity (%), EC50 Ref/EC50 antibody” value in assay [2] amounted to 4210%. Besides, the EC50 in [3] is 0.00327 mg/L; in assay [4], 0.122 mg/L. Also, the figures for the “Relative activity (%)” value in [5] and in assay [6] were 107% and 3520%, respectively.

B5: Chi-63 (antibody, V domains shown)
VH: DVKLVESGGGLVKLGGSLKLSCAASGFTFSSYHMSWVRQTPEKRLELVAAISRDGDSTYYPDTVKGRFTISRDDAENTLYLQMSSLKSEDTALYYCSRHEDYFGFAMDSWGQGTSVTVSS
VL: B3 VL with S30T, E38Q, H53N, R54H, F55Y, T63I, N76S, H89Q
notes: chimeric
With B5, in assay [2], the “EC50, CD112R/CD112 reporter” value was determined as 0.0174 mg/L. The “Relative activity (%), EC50 Ref/EC50 antibody” value in assay [2] came to 1490%. Moreover, the EC50 in [3] was determined as 0.00436 mg/L; in assay [4] it was 0.531 mg/L. The “Relative activity (%)” value in assay [5] stood at 96.1%; in [6], 805%.

B6: Chi-72 (antibody, V domains shown)
VH: B3 VH with K3Q, A23V, V37I, V55D, S57N, N74I, Y80H
VL: DIQLTQSPASLSVSVGETVTITCRVSANIYSNLVWYHQRQGKSPQLLVYGGTNLADGVPSRFSGSGSGTQFSLKINSLQSEDFGSYHCQHFWSTPYTFGGGTKLEIK
notes: chimeric
In assay [4], B6 returned a half-maximal effective concentration (EC50) of 12.3 mg/L. Moreover, the “Relative activity (%)” value in assay [6] was 35%.

B7: Hu34 (antibody, IgG4, V domains shown)
VH: EVQLVESGGGLVQPGGSLRLSCAASGFTFSSYHMSWVRQAPGKGLELVAAISRDGDSTYYPDTVKGRFTISRDDAENSLYLQMNSLRAEDTAVYYCSRHEDYFGFAMDSWGQGTLVTVSS
VL: DIVMTQSPDSLAVSLGERATINCKASQSVSNDVAWYQQKPGQPPKLLIYYVSHRFTGVPDRFSGSGSGTDFTLTISSLQAEDVAVYFCHQAYRSPWTFGQGTKLEIK
notes: humanized IgG4
As to B7, the “Relative activity (%)” value in assay [7] was found to be 149%. Moreover, the “Relative activity (%)” value in [8] is 162%. In [9], the EC50 was found to be 0.00368 mg/L. The IC50 in assay [10] worked out at 2.4 mg/L. Further, in [11], the “EC50, CD112R/CD112 reporter” value turned out to be 0.0336 mg/L and the “Relative activity (%), EC50 COM701/EC50 antibody” value worked out at 160%.

B8: Hu33 (antibody, IgG4, V domains shown)
VH: B7 VH
VL: EIVMTQSPPTLSLSPGERVTLSCKASQSVSNDVAWYQEKPGQAPRLLIYYVSHRFTGIPARFSGSGSGTDFTLTISSLQPEDFAVYYCHQAYRSPWTFGQGTKLEIK
notes: humanized IgG4
As to B8, the “Relative activity (%)” value in [7] stood at 144%. In addition, the “Relative activity (%)” value in assay [8] was 174%. In addition, in [9], the EC50 stood at 0.00348 mg/L. Also, the IC50 in assay [10] came out at 2.48 mg/L. Also, in [11], the “EC50, CD112R/CD112 reporter” value is 0.0341 mg/L and the “Relative activity (%), EC50 COM701/EC50 antibody” value is 157%.
